This is an account of results in IntAct's records for PubMed 21320496.

B1: Abl interactor 1 (Homo sapiens), Q8IZP0-4 (parent)
chain: MAELQMLLEEEIPSGKRALIESYQNLTRVADYCENNYIQATDKRKALEETKAYTTQSLASVAYQINALANNVLQLLDIQASQLRRMESSINHISQTVDIHKEKVARREIGILTTNKNTSRTHKIIAPANMERPVRYIRKPIDYTVLDDVGHGVKWLKAKHGNNQPARTGTLSRTNPPTQKPPSPPMSGRGTLGRNTPYKTLEPVKPPTVPNDYMTSPARLGSQHSPGRTASLNQRPRTHSGSSGGSGSRENSGSSSIGIPIAVPTPSPPTIGPAPGSAPGSQYGTMTRQISRHNSTTSSTSSGGYRRTPSVTAQFSAQPHVNGGPLYSQNSIADSPTPPPPPPPDDIPMFDDSPPPPPPPPVDYEDEEAAVVQYNDPYADGDPAWAPKNYIEKVVAIYDYTKDKDDELSFMEGAIIYVIKKNDDGWYEGVCNRVTGLFPGNYVESIMHYTD

Variants of B1 are the subject of the assay. Particulars: with Abl1, P00520-4.
Chain of Abl1, P00520-4 (P00520 other isoform, or with tags, fused parts or gaps): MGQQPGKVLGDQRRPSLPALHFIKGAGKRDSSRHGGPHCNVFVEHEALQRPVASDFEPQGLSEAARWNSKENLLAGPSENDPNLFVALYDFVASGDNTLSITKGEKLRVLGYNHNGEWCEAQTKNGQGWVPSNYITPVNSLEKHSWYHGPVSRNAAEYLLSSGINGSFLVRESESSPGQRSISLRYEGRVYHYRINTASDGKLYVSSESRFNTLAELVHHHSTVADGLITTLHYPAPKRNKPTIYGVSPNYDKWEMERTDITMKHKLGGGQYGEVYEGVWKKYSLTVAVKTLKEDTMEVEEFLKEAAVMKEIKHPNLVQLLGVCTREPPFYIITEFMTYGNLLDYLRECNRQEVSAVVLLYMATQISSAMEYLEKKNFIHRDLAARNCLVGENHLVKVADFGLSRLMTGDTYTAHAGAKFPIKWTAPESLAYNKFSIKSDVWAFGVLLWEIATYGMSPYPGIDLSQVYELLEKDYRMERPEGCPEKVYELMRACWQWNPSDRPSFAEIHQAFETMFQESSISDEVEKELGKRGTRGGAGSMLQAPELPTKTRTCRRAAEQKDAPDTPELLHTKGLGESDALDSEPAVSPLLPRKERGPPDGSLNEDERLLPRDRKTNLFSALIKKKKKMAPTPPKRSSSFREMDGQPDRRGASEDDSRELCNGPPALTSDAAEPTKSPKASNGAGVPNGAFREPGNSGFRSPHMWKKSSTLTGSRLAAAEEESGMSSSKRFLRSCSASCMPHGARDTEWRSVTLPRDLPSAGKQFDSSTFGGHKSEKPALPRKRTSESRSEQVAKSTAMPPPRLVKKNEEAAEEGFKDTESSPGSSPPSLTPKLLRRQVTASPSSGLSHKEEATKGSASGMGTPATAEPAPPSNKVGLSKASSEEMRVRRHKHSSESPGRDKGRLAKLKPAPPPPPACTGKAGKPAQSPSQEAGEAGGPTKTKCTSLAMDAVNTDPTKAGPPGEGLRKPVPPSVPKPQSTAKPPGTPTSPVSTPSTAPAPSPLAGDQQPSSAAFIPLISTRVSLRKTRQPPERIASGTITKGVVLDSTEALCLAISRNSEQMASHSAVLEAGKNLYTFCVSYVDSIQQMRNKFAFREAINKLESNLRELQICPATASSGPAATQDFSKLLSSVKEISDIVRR
Take Y213F: the “effect of a mutation on the interaction” value was “decreasing interaction”.

On to Y398F, for which the “effect of a mutation on the interaction” value is on record as “decreasing interaction”.
